According to paper PMC7954794, “Protein context shapes the specificity of SH3 domain-mediated interactions in vivo” (Nature Communications, 2021):

Test system: PPIs identified as affected by the SH3 domain deletions
Assay: Liquid DHFR-PCA low-throughput validation of PPIs affected by SH3 deletion (Fig. S1D-E)
Assay type: cell-based, Saccharomyces cerevisiae
Conditions: label = prey, liquid DHFR-PCA, prey _1 = lost, _2 = gained in screen
Method: Liquid DHFR-PCA low-throughput experiments were performed to validate the PPIs identified as affected by the SH3 domain deletions in the high-throughput solid DHFR-PCA screen (256 PPIs weaker or lost and 116 PPIs stronger or gained following domain deletions). Mating and the diploid selection were performed as described for the large-scale experiment, with the exception that the plates were in 384 formats. Following the second diploid selection, diploid cells were inoculated in a 96 v-shaped well plate using a robotically manipulated 96 pin tool in a synthetic complete medium with MSG at pH 6.0 with NAT and HPH. After 48 h of growth, optical density (OD) was read using a TECAN Infinite F200 Pro, and dilutions to 1 OD in sterile nanopure water were prepared. Cells were then diluted to 0.1 OD by combining 25 µl of cell suspension at OD = 1 and 225 µl of PCA selection media without agar in a 96-wells plate. Plates were incubated at 30 °C in a TECAN Infinite M Nano and OD was monitored each 15 min for 72 h.

Row | Molecule | Ratio (Deletedscore / WTscore) (bait BBC1) | Ratio (Deletedscore / WTscore) (bait MYO3) | Ratio (Deletedscore / WTscore) (bait MYO5) | other results
1 | YHR114W_1 (protein, UniProt P38822 1-633, looked up) Protein BZZ1: MSADLSIGNEIKDSFKETHKWVQNNLKWLKDIEQFYRERAKLEKDYSERLSRLSAEYFNKKSSTSVPISVGDTPTTTPGSIEAAGVVAWNEILSQTDMISKDHDQLSTDFENHVANQLSGLFTKLDMTLSKINGFNNDMVNKKDNIYHELEKAKKDYDEACSTMEMARNRYTKASNDRNKKKLDEKEMEMNKCKNEYLIKINQANRTKDKYYFQDVPEVLDLLQDVNEAKTLFLNDLWLKAASVENDLGANVSKRLQAANSVVKQNKPSLNTAIFIKHNLKNWKEPQDFVYKPSPVWHDDEKFAVPSSLEVEDLRIKLAKAENDYNSLQDKTQNELSKLSTLNKIKHEMKTNEDNINATKFYDTLKEYLNVVSPFTSHETLKLQAEVQIESIQNNVPEEYDLSTDNIDLSKTKKKSGIFSKFKHNILNVDSKPSSGGSTGNGNGGPLHITSLFNTSRRTRLGSAPNNAGEDSDNNSIRTTSTNNTKKTTQNSSDDGKNKVLYAYVQKDDDEITITPGDKISLVARDTGSGWTKINNDTTGETGLVPTTYIRISSAATVKANDRGPAPEVPPPRRSTLPVRTMEAIYAYEAQGDDEISIDPGDIITVIRGDDGSGWTYGECDGLKGLFPTSYCK | 0.6315 | 0.5608 | 0.7759 | Ratio (Deletedscore / WTscore) (bait LSB3): 0.7048; Ratio (Deletedscore / WTscore) (bait RVS167): 0.6256
2 | YGR229C_1 (protein, UniProt P32566 1-505, looked up) Cell wall assembly regulator …: MDLFKRKVKEWVYSLSTDDHYAEYNPDETPTFNMGKRLNSNNGQVNPSQMHLNSVDEEMSMGFQNGVPSNEDINIDEFTSTESNDGVSETLLAWRHIDFWTSEHNPDLNATLSDPCTQNDITHAEEDLEVSFPNPVKASFKIHDGQEDLESMTGTSGLFYGFQLMTLDQVVAMTQAWRNVAKNLNKRSQQGLSHVTSTGSSSSMERLNGNKFKLPNIPDQKSIPPNAVQPVYAHPAWIPLITDNAGNHIGVDLAPGPNGKYAQIITFGRDFDTKFVIAENWGEFLLSFANDLEAGNWYLVDDNDDYFSGDGELVFRDKKSNGPIQDYFEVLKRRTWIKYQENLRSQQQKSQPDTSLQEQKYVPASQKKVAAEQPSTLNAESIKGEDSGSADVQSVQDHESVKIVKTEPSEAETTTVNTESLGQAEHEIKADNVDIKQESERKEDEKQPKVEEKEHVENEHVTESAKKDDDVNKQTEEMNKKEENEIRSDDAKVEEAREEFENIAL | 0.6664 |  |  | Ratio (Deletedscore / WTscore) (bait BEM1-1): 0.1513
3 | YKL117W_1 (protein, UniProt P28707 2-216, looked up) Co-chaperone protein SBA1: SDKVINPQVAWAQRSSTTDPERNYVLITVSIADCDAPELTIKPSYIELKAQSKPHVGDENVHHYQLHIDLYKEIIPEKTMHKVANGQHYFLKLYKKDLESEYWPRLTKEKVKYPYIKTDFDKWVDEDEQDEVEAEGNDAAQGMDFSQMMGGAGGAGGAGGMDFSQMMGGAGGAGSPDMAQLQQLLAQSGGNLDMGDFKENDEEDEEEEIEPEVKA | 0.6627 |  |  | 
4 | YBL007C_1 (protein, UniProt P32790 1-1244, looked up) Actin cytoskeleton-regulatory …: MTVFLGIYRAVYAYEPQTPEELAIQEDDLLYLLQKSDIDDWWTVKKRVIGSDSEEPVGLVPSTYIEEAPVLKKVRAIYDYEQVQNADEELTFHENDVFDVFDDKDADWLLVKSTVSNEFGFIPGNYVEPENGSTSKQEQAPAAAEAPAATPAAAPASAAVLPTNFLPPPQHNDRARMMQSKEDQAPDEDEEGPPPAMPARPTATTETTDATAAAVRSRTRLSYSDNDNDDEEDDYYYNSNSNNVGNHEYNTEYHSWNVTEIEGRKKKKAKLSIGNNKINFIPQKGTPHEWSIDKLVSYDNEKKHMFLEFVDPYRSLELHTGNTTTCEEIMNIIGEYKGASRDPGLREVEMASKSKKRGIVQYDFMAESQDELTIKSGDKVYILDDKKSKDWWMCQLVDSGKSGLVPAQFIEPVRDKKHTESTASGIIKSIKKNFTKSPSRSRSRSRSKSNANASWKDDELQNDVVGSAAGKRSRKSSLSSHKKNSSATKDFPNPKKSRLWVDRSGTFKVDAEFIGCAKGKIHLHKANGVKIAVAADKLSNEDLAYVEKITGFSLEKFKANDGSSSRGTDSRDSERERRRRLKEQEEKERDRRLKERELYELKKARELLDEERSRLQEKELPPIKPPRPTSTTSVPNTTSVPPAESSNNNNSSNKYDWFEFFLNCGVDVSNCQRYTINFDREQLTEDMMPDINNSMLRTLGLREGDIVRVMKHLDKKFGRENIASIPTNATGNMFSQPDGSLNVATSPETSLPQQLLPQTTSPAQTAPSTSAETDDAWTVKPASKSESNLLSKKSEFTGSMQDLLDLQPLEPKKAAASTPEPNLKDLEPVKTGGTTVPAAPVSSAPVSSAPAPLDPFKTGGNNILPLSTGFVMMPMITGGDMLPMQRTGGFVVPQTTFGMQSQVTGGILPVQKTGNGLIPISNTGGAMMPQTTFGAAATVLPLQKTGGGLIPIATTGGAQFPQTSFNVQGQQQLPTGSILPVQKTANGLISANTGVSMPTVQRTGGTMIPQTSFGVSQQLTGGAMMTQPQNTGSAMMPQTSFNAVPQITGGAMMPQTSFNALPQVTGGAMMPLQRTGGALNTFNTGGAMIPQTSFSSQAQNTGGFRPQSQFGLTLQKTGGIAPLNQNQFTGGAMNTLSTGGVLQQQQPQTMNTFNTGGVMQELQMMTTFNTGGAMQQPQMMNTFNTDGIMQQPQMMNTFNTGGAMQQPQQQALQNQPTGFGFGNGPQQSRQANIFNATASNPFGF | 0.5353 | 0.6734 | 0.8649 | Ratio (Deletedscore / WTscore) (bait LSB1): 0.9074; Ratio (Deletedscore / WTscore) (bait PIN3): 0.824
5 | YGR281W_1 (protein, UniProt P53049 1-1477, looked up) Oligomycin resistance …: MTITVGDAVSETELENKSQNVVLSPKASASSDISTDVDKDTSSSWDDKSLLPTGEYIVDRNKPQTYLNSDDIEKVTESDIFPQKRLFSFLHSKKIPEVPQTDDERKIYPLFHTNIISNMFFWWVLPILRVGYKRTIQPNDLFKMDPRMSIETLYDDFEKNMIYYFEKTRKKYRKRHPEATEEEVMENAKLPKHTVLRALLFTFKKQYFMSIVFAILANCTSGFNPMITKRLIEFVEEKAIFHSMHVNKGIGYAIGACLMMFVNGLTFNHFFHTSQLTGVQAKSILTKAAMKKMFNASNYARHCFPNGKVTSFVTTDLARIEFALSFQPFLAGFPAILAICIVLLIVNLGPIALVGIGIFFGGFFISLFAFKLILGFRIAANIFTDARVTMMREVLNNIKMIKYYTWEDAYEKNIQDIRTKEISKVRKMQLSRNFLIAMAMSLPSIASLVTFLAMYKVNKGGRQPGNIFASLSLFQVLSLQMFFLPIAIGTGIDMIIGLGRLQSLLEAPEDDPNQMIEMKPSPGFDPKLALKMTHCSFEWEDYELNDAIEEAKGEAKDEGKKNKKKRKDTWGKPSASTNKAKRLDNMLKDRDGPEDLEKTSFRGFKDLNFDIKKGEFIMITGPIGTGKSSLLNAMAGSMRKTDGKVEVNGDLLMCGYPWIQNASVRDNIIFGSPFNKEKYDEVVRVCSLKADLDILPAGDMTEIGERGITLSGGQKARINLARSVYKKKDIYLFDDVLSAVDSRVGKHIMDECLTGMLANKTRILATHQLSLIERASRVIVLGTDGQVDIGTVDELKARNQTLINLLQFSSQNSEKEDEEQEAVVAGELGQLKYESEVKELTELKKKATEMSQTANSGKIVADGHTSSKEERAVNSISLKIYREYIKAAVGKWGFIALPLYAILVVGTTFCSLFSSVWLSYWTENKFKNRPPSFYMGLYSFFVFAAFIFMNGQFTILCAMGIMASKWLNLRAVKRILHTPMSYIDTTPLGRILNRFTKDTDSLDNELTESLRLMTSQFANIVGVCVMCIVYLPWFAIAIPFLLVIFVLIADHYQSSGREIKRLEAVQRSFVYNNLNEVLGGMDTIKAYRSQERFLAKSDFLINKMNEAGYLVVVLQRWVGIFLDMVAIAFALIITLLCVTRAFPISAASVGVLLTYVLQLPGLLNTILRAMTQTENDMNSAERLVTYATELPLEASYRKPEMTPPESWPSMGEIIFENVDFAYRPGLPIVLKNLNLNIKSGEKIGICGRTGAGKSTIMSALYRLNELTAGKILIDNVDISQLGLFDLRRKLAIIPQDPVLFRGTIRKNLDPFNERTDDELWDALVRGGAIAKDDLPEVKLQKPDENGTHGKMHKFHLDQAVEEEGSNFSLGERQLLALTRALVRQSKILILDEATSSVDYETDGKIQTRIVEEFGDCTILCIAHRLKTIVNYDRILVLEKGEVAEFDTPWTLFSQEDSIFRSMCSRSGIVENDFENRS | 0.5928 | 0.4945 | 0.6948 | Ratio (Deletedscore / WTscore) (bait BEM1-2): 0.6055
6 | YFR024C-A_1 (protein, UniProt P43603 1-459, looked up) LAS seventeen-binding protein …: MGINNPIPRSLKSETKKAAKILASFVKPNQVFGADQVIPPDVLKRAKGLAIITILKAGFLFSGRAGSGVIVARLKDGTWSAPSAIAMAGAGAGGMVGIELTDFVFILNTQDAVKSFSEFGTITLGGNVSVSAGPLGRSAEAAASASAGGVAAVFAYSKSKGLFAGVSVEGSAIIERREANRKFYGDNCTAKMILSGRIRPPPAVDPLFRVLESRAFNYRPSNGGRGSFDDDEDDYYDDDDYYNDIPSSFSSTDASSTRPNTRSTRRRAQSGSRYTFDDDDDDDDYGTGYSRNSRLAPTNSGGSGGKLDDPSGASSYYASHRRSGTAQSRARSSRNRWADDEYDDYDDDYESGYRRGNGRDRTKDREVDDLSNRFSKSRISSASTPQTSQGRFTAPTSPSTSSPKAVALYSFAGEESGDLPFRKGDVITILKKSDSQNDWWTGRVNGREGIFPANYVELV | 0.507 | 0.7743 | 0.8345 | Ratio (Deletedscore / WTscore) (bait BZZ1-1): 0.736; Ratio (Deletedscore / WTscore) (bait HOF1): 1.194; Ratio (Deletedscore / WTscore) (bait RVS167): 0.8585
7 | YFL010C_1 (protein, UniProt P43582 1-211, looked up) WW domain-containing protein …: MAQSKSNPPQVPSGWKAVFDDEYQTWYYVDLSTNSSQWEPPRGTTWPRPKGPPPGVNNEKSSRQQADQAPPPYSSQSTPQVQAGAQAQQPRYYQPQQPQYPQYPQQQRYYPQQAPMPAAAPQQAYYGTAPSTSKGSGHGGAMMGGLLGVGAGLLGGAMLEHAFDDHNYDGPDTVVVENNYYGDDAGGSDGGFDDAGGFDGGFDDGFDGSDF | 0.6877 |  |  | 
